Patent US20130210023, “NUCLEIC ACID […] AGAINST PLASMODIUM LACTATE DEHYDROGENASE AND HISTIDINE-RICH PROTEIN II AND USES […] FOR MALARIA DIAGNOSIS” (THE UNIVERSITY OF HONG KONG, published 2013)

Experiments:
[1] = molecular target: T1, Plasmodium falciparum lactate dehydrogenase (PfLDH) (Plasmodium falciparum 3D7, UniProt Q76NM3 Q76NM3:1-316); assay: ITC; nanomolar, similar Kd and stoichiometry to 2009s; same buffer, 25 C; settings: chain copies: 4 stated (tetramer in crystal)
[2] = molecular target: T1, Plasmodium falciparum lactate …; assay: ITC; nanomolar Kd, value only in figure; N=0.177; 25 mM Tris-HCl pH 7.5, 0.1 M NaCl, 20 mM imidazole, 25 C; settings: chain copies: 4 stated (tetramer in crystal)
[3] = molecular target: human lactate dehydrogenase A1 (hLDHA1) (Homo sapiens, UniProt P00338 P00338:1-332); assay: ITC; no binding by ITC, EMSA and SPR; no AuNP color change
[4] = molecular target: human lactate dehydrogenase B (hLDHB) (Homo sapiens, UniProt P07195 P07195:2-334); assay: as above; settings: tags: His tag (pET-28a, HisTrap purified); chain copies: 4; last 8 nt disordered; not G4
Sequence of human lactate dehydrogenase B (hLDHB) (P07195 2-334, one chain of several): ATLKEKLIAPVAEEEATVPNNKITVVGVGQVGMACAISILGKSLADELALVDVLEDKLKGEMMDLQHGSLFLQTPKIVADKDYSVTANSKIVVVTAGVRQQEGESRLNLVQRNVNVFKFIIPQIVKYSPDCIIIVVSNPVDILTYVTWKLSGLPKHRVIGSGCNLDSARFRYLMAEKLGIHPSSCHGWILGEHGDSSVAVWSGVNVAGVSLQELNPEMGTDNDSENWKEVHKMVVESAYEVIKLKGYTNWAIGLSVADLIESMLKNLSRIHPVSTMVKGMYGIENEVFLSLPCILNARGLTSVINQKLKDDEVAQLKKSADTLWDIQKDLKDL

[5] = molecular target: T1, Plasmodium falciparum lactate …; assay: structure; crystal structure, two aptamers per PfLDH tetramer; contacts residues 102-108, Asp53, Ile54 (A) and Lys62, His250 (B); settings: chain copies: 4 stated (tetramer in crystal); last 8 nt disordered; not G4
[6] = molecular target: T1, Plasmodium falciparum lactate …; assay: ITC; nanomolar Kd, value only in figure; N=0.451; 25 mM Tris-HCl pH 7.5, 0.1 M NaCl, 20 mM imidazole, 25 C; settings: chain copies: 4 stated (tetramer in crystal)
[7] = molecular target: T1, Plasmodium falciparum lactate …; assay: ITC; nanomolar Kd, value only in figure; N=0.152; 25 mM Tris-HCl pH 7.5, 0.1 M NaCl, 20 mM imidazole, 25 C; settings: chain copies: 4 stated (tetramer in crystal)

B1: 2009 (2009s with 18-mer flanks on both ends) (ssDNA)
DNA: CGTACGGTCGACGCTAGCTAGGTGGCCAGAAGGTAGAACCATAGTGGTCTGGTACACGTGGAGCTCGGATCC
binding result [1]: binds

AGAATGGCGGGAGAGCCTTAGCGACCATTCGTAC (ssDNA) [2021s]
binding result [2]: binds

CTGGGCGGTAGAACCATAGTGACCCAGCCGTCTAC (ssDNA) [2008s]
binding result [3]: no binding
binding result [4]: no binding
binding result [5]: binds

TAGGTGGCCAGAAGGTAGAACCATAGTGGTCTGGTA (ssDNA) [2009s]
binding result [6]: binds

ACGCGAGCAGGTGGTAGAATCATAATGGCCTGATC (ssDNA) [2004s]
binding result [7]: binds
